The term Kd denotes the concentration at which binding is half-saturated. The term koff denotes a measure of how fast the partners let go of each other.

2 molecules from patent publication US20150313990A1 can be followed below.

No end group written: not given here.

In experiment [1] the target is HIV-1 BaL virions (virion-associated envelope gp120, stock grown in primary CD4+ T cells) (HIV-1 BaL). Kind of experiment: cell-based or functional assay.
For experiment [2], the target named is recombinant soluble CD4 (number of domains not stated), P01730. Kind of experiment: SPR; biotinylated pV2α (235 RU) on neutravidin-coated CM3 chip, recombinant soluble CD4 in solution; koff-KD distribution model. (In SPR one partner is held on a chip, and binding of the other changes the refractive index at the surface.)
Experiment [3] has as its target recombinant soluble gp120 (isolate YU2) (HIV-1 isolate YU2), P35961. Briefly: SPR; biotinylated pV2α (235 RU) on neutravidin-coated CM3 chip, gp120 YU2 in solution at 2, 4, 8 and 16 nM; koff-KD distribution model.

B1: peptide pV2α-Tys (tyrosine-sulfated variant of peptide pV2α) (peptide)
peptide: KVQKEYALFYELDIVPID
modifications: not checked
With B1, in experiment [1], the IC50 of inhibition of acute infection of primary human CD4+ T cells by HIV-1 BaL came to 15 µM.

B2: biotinylated peptide pV2α (captured on neutravidin chip or biotin-captured in ELISA) (peptide)
peptide: KVQKEYALFYELDIVPID
modifications: not fully specified
Regarding B2, in experiment [2], the Kd came out at 4 mM and the koff amounted to 0.013 s⁻¹. Besides, in experiment [3], the dissociation constant (Kd) worked out at 0.9 nM and the koff worked out at 6.4e-05 s⁻¹.
